Reference: US10428140B2, “Anti-EphA4 antibody” (EISAI R&D MANAGEMENT CO., LTD., priority 2015, dated 2019)

T1: human EphA3 (Homo sapiens, UniProt P29320)
T1 construct: a protein of the extracellular region of each human Eph receptor fused with the SEAP protein and the His tag; made in house; host or cells: Expi293F cells (culture supernatant)
T1 sequence (P29320 21-541 limits assumed): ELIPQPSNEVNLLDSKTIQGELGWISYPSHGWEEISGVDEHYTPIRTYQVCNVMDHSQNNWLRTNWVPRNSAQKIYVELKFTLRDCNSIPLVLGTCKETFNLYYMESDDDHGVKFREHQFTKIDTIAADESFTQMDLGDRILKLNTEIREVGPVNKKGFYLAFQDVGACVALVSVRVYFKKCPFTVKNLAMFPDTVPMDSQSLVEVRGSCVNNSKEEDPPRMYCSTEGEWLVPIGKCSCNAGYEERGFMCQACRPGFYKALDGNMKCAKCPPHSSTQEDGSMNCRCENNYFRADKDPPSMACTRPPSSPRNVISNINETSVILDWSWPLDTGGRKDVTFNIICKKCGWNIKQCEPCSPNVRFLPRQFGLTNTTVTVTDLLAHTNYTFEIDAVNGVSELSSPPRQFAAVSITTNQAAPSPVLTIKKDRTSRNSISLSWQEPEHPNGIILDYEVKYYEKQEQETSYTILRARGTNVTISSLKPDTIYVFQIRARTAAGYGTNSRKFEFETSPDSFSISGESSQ

T2: human EphB2 (Homo sapiens, UniProt P29323)
T2 construct: a protein of the extracellular region of each human Eph receptor fused with the SEAP protein and the His tag; made in house; host or cells: Expi293F cells
T2 sequence (P29323 19-543 limits assumed): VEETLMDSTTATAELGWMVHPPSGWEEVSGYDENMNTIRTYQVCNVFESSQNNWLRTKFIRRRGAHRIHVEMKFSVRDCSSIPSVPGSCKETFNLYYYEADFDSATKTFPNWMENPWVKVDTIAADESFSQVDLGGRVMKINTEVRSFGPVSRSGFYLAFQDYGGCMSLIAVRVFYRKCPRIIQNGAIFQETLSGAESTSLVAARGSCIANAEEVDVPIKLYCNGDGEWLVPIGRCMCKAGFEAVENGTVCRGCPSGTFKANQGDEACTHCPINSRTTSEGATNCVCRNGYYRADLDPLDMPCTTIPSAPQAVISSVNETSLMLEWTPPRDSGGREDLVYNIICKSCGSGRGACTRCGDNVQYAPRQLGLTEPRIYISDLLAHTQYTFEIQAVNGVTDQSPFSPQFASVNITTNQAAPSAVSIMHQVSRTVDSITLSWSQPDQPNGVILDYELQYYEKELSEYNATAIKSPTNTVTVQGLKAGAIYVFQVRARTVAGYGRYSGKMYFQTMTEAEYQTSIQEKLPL

T3: human EphB4 (Homo sapiens, UniProt P54760)
T3 construct: a protein of the extracellular region of each human Eph receptor fused with the SEAP protein and the His tag; made in house; host or cells: Expi293F cells
T3 sequence (P54760 16-539 limits assumed): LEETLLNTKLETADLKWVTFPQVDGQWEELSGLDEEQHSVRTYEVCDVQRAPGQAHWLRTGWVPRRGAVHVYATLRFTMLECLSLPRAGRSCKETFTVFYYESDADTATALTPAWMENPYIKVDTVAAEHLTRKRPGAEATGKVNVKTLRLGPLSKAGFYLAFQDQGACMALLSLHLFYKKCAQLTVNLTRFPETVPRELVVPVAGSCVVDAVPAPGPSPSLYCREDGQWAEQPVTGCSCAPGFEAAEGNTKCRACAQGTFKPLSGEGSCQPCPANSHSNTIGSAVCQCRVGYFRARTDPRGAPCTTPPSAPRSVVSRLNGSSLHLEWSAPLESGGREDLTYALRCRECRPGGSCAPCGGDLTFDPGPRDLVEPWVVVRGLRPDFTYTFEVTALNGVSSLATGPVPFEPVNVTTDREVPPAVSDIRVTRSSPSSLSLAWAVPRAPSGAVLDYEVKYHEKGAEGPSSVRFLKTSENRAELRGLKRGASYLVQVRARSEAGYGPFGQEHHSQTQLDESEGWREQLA


Experiments:
Test in all cases: Selectivity ELISA of humanized antibodies for human Eph receptor
Type in all cases: binding
Details in all cases: coated protein 1 nM
human EphA2 = target: T4, human EphA2 (Homo sapiens, UniProt P29317)
T4 construct: a protein of the extracellular region of each human Eph receptor fused with the SEAP protein and the His tag; made in house; host or cells: Expi293F cells (culture supernatant)
In short: (§1)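 Capture ELISA: anti-6-His coat, 1% BlockAce block, Eph ECD-SEAP-His (1 nM final, Expi293F supernatant) 1 h RT, humanized Ab 1 h RT, HRP anti-IgG 1 h RT, TMB, H2SO4 stop, A450.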

human EphA3 = target: T1, human EphA3
In short: as §1

human EphB2 = target: T2, human EphB2
In short: as §1

human EphB4 = target: T3, human EphB4
In short: as §1

SEAP-His = SEAP-His (Homo sapiens, UniProt P05187)
In short: as §1

Chain of SEAP-His (P05187 23-511 limits assumed): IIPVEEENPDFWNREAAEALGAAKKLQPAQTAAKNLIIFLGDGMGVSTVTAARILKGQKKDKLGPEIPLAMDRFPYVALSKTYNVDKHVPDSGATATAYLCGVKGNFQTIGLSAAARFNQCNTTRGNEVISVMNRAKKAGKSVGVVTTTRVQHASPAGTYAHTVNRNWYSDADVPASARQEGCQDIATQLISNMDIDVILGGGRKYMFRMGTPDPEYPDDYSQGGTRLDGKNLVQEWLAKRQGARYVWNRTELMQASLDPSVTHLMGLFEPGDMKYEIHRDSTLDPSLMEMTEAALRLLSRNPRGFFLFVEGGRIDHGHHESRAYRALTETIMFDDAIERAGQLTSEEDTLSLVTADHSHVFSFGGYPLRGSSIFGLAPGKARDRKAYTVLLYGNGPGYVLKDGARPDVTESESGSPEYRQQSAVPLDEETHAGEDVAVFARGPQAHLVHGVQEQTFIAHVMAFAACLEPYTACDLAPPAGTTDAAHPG
T4 sequence (P29317 24-537 limits assumed): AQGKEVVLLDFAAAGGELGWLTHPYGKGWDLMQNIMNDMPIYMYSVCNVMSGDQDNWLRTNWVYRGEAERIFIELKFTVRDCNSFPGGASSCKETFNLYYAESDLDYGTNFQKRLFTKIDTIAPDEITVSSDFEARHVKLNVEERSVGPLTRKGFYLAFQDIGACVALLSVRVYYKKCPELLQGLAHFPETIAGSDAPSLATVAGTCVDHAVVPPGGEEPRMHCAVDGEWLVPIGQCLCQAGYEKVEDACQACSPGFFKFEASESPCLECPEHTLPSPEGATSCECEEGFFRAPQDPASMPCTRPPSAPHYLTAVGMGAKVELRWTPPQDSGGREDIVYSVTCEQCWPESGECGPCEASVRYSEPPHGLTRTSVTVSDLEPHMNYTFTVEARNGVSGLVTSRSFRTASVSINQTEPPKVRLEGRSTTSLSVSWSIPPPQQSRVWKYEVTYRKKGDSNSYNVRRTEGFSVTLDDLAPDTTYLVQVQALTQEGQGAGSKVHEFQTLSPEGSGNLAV

Molecule | hEphA2-SEAP-: absorbance at 450 nm, percentage with respect to hEphA4-SEAP-His as 100% (human EphA2) | hEphA3-SEAP-: absorbance at 450 nm, percentage with respect to hEphA4-SEAP-His as 100% (human EphA3) | hEphB2-SEAP-: absorbance at 450 nm, percentage with respect to hEphA4-SEAP-His as 100% (human EphB2) | hEphB4-SEAP-: absorbance at 450 nm, percentage with respect to hEphA4-SEAP-His as 100% (human EphB4) | SEAP-His: absorbance at 450 nm, percentage with respect to hEphA4-SEAP-His as 100% (SEAP-His)
89 (antibody, V domains shown, constant regions without entry; synthetic humanized antibody light chain variable region sequence; synthetic humanized antibody heavy chain variable region sequence) VL: DIQMTQSPSSLSASVGDRVTITCRASENIYRNLAWYQQKPGKAPQLLLYAATNLADGVPSRFSGSGSGTDYTLTISSLQPEDFATYYCQHFWGTPWTFGQGTKVEIK VH: QIQLVQSGSELKKPGASVKVSCKASGYTFTDYSMHWVRQAPGQGLKWMGWINTETGEPTYAQGFTGRFVFSLDTSVSTAYLQISSLKAEDTAVYYCARIPLYYYGSRYWYFDVWGQGTTVTVSS | 5.6% | 5.8% | 5.7% | 5.8% | 5.8%
92 (antibody, V domains shown, constant regions without entry; synthetic humanized antibody light chain variable region sequence; synthetic humanized antibody heavy chain variable region sequence) VL: DIQMTQSPSSLSASVGDRVTITCRASENIYRNLAWYQQKPGKAPQLLLYAATNLADGVPSRFSGSGSGTDYTLTISSLQPEDFATYYCQHFWGTPWTFGQGTKVEIK VH: QIQLVQSGSELKKPGASVKVSCKASGYTFTDYSMHWVRQAPGQGLKWMGWINTETGEPTYADDFKGRFVFSLDTSVSTAYLQISSLKAEDTAVYYCARIPLYYYGSRYWYFDVWGQGTTVTVSS | 6.9% | 6.5% | 6.6% | 6.6% | 6.5%
90 (antibody, V domains shown, constant regions without entry; synthetic humanized antibody light chain variable region sequence; synthetic humanized antibody heavy chain variable region sequence) VL: DIQMTQSPSSLSASVGDRVTITCRASENIYRNLAWYQQKPGKAPQLLLYAATNLADGVPSRFSGSGSGTDYTLTISSLQPEDFATYYCQHFWGTPWTFGQGTKVEIK VH: QVQLVQSGSELKKPGASVKVSCKASGYTFTDYSMHWVRQAPGQGLEWMGWINTETGEPTYADDFKGRFVFSLDTSVSTAYLQISSLKAEDTAVYYCARIPLYYYGSRYWYFDVWGQGTTVTVSS | 5.2% | 5.2% | 5.9% | 5.0% | 5.2%
91 (antibody, V domains shown, constant regions without entry; synthetic humanized antibody light chain variable region sequence; synthetic humanized antibody heavy chain variable region sequence) VL: DIQMTQSPSSLSASVGDRVTITCRASENIYRNLAWYQQKPGKAPQLLLYAATNLADGVPSRFSGSGSGTDYTLTISSLQPEDFATYYCQHFWGTPWTFGQGTKVEIK VH: QVQLVQSGSELKKPGASVKVSCKASGYTFTDYSMHWVRQAPGQGLKWMGWINTETGEPTYADDFKGRFVFSLDTSVSTAYLQISSLKAEDTAVYYCARIPLYYYGSRYWYFDVWGQGTTVTVSS | 6.1% | 6.6% | 7.0% | 6.2% | 6.4%
